B1: VAMP4 (parent)
chain: FLRGPSGPRFGPRNDKIKHVQNQV
B2: HDAC6 (parent)
chain: QYMNEGELRVLADTYDSVYLHPNS

Variants of: B1
Assay: protein stability index of a GFP-peptide fusion (GPS, HEK-293T) (PSI 1-6); higher = more stable
Settings: c terminus: a fixed tail appended
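Note: lentivirally expressed fusions sorted by FACS into six bins by GFP to DsRed ratio, PSI derived from sequencing read proportions per bin multiplied by bin number.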

| Variant | protein stability index |
| --- | --- |
| FLRGPSGPRFGPRNDKIKHCQNQV | 2.15 |
| FLRGPSGPRFGPRNDKIKHDQNQV | 3.72 |
| FLRGPSGPRFGPRNDKIKHEQNQV | 3.91 |
| FLRGPSGPRFGPRNDKIKHGQNQV | 2.62 |
| FLRGPSGPRFGPRNDKIKHHQNQV | 3.3 |
| FLRGPSGPRFGPRNDKIKHIQNQV | 2.69 |
| FLRGPSGPRFGPRNDKIKHKQNQV | 3.23 |
| FLRGPSGPRFGPRNDKIKHLQNQV | 2.9 |
| FLRGPSGPRFGPRNDKIKHNQNQV | 2.91 |
| FLRGPSGPRFGPRNDKIKHQQNQV | 2.24 |
| FLRGPSGPRFGPRNDKIKHRQNQV | 3.26 |
| FLRGPSGPRFGPRNDKIKHTQNQV | 2.87 |
| FLRGPSGPRFGPRNDKIKHWQNQV | 2.25 |
| FLRGPSGPRFGPRNDKIKHYQNQV | 2.46 |
| FLRGPSGPRFGPRNDKIKHVCNQV | 1.68 |
| FLRGPSGPRFGPRNDKIKHVDNQV | 2.93 |
| FLRGPSGPRFGPRNDKIKHVFNQV | 2.42 |
| FLRGPSGPRFGPRNDKIKHVGNQV | 2.55 |
| FLRGPSGPRFGPRNDKIKHVHNQV | 3.2 |
| FLRGPSGPRFGPRNDKIKHVKNQV | 2.81 |
| FLRGPSGPRFGPRNDKIKHVLNQV | 1.75 |

| Variant | protein stability index |
| --- | --- |
| FLRGPSGPRFGPRNDKIKHVMNQV | 1.85 |
| FLRGPSGPRFGPRNDKIKHVNNQV | 3.59 |
| FLRGPSGPRFGPRNDKIKHVPNQV | 2.91 |
| FLRGPSGPRFGPRNDKIKHVSNQV | 2.47 |
| FLRGPSGPRFGPRNDKIKHVTNQV | 2.29 |
| FLRGPSGPRFGPRNDKIKHVVNQV | 2.83 |
| FLRGPSGPRFGPRNDKIKHVWNQV | 1.41 |
| FLRGPSGPRFGPRNDKIKHVYNQV | 2.11 |
| FLRGPSGPRFGPRNDKIKHVQAQV | 2.58 |
| FLRGPSGPRFGPRNDKIKHVQCQV | 2.56 |
| FLRGPSGPRFGPRNDKIKHVQDQV | 3.48 |
| FLRGPSGPRFGPRNDKIKHVQEQV | 3.94 |
| FLRGPSGPRFGPRNDKIKHVQFQV | 1.68 |
| FLRGPSGPRFGPRNDKIKHVQGQV | 2.77 |
| FLRGPSGPRFGPRNDKIKHVQHQV | 2.18 |
| FLRGPSGPRFGPRNDKIKHVQIQV | 1.51 |
| FLRGPSGPRFGPRNDKIKHVQKQV | 2.88 |
| FLRGPSGPRFGPRNDKIKHVQLQV | 2.27 |
| FLRGPSGPRFGPRNDKIKHVQMQV | 1.57 |
| FLRGPSGPRFGPRNDKIKHVQPQV | 2.53 |
| FLRGPSGPRFGPRNDKIKHVQQQV | 2.48 |

| Variant | protein stability index |
| --- | --- |
| FLRGPSGPRFGPRNDKIKHVQRQV | 2.25 |
| FLRGPSGPRFGPRNDKIKHVQSQV | 3.25 |
| FLRGPSGPRFGPRNDKIKHVQTQV | 3.02 |
| FLRGPSGPRFGPRNDKIKHVQVQV | 1.74 |
| FLRGPSGPRFGPRNDKIKHVQWQV | 1.42 |
| FLRGPSGPRFGPRNDKIKHVQYQV | 2.14 |
| FLRGPSGPRFGPRNDKIKHVQNAV | 2.81 |
| FLRGPSGPRFGPRNDKIKHVQNCV | 2.23 |
| FLRGPSGPRFGPRNDKIKHVQNDV | 3.04 |
| FLRGPSGPRFGPRNDKIKHVQNEV | 3.39 |
| FLRGPSGPRFGPRNDKIKHVQNGV | 1.8 |
| FLRGPSGPRFGPRNDKIKHVQNHV | 2.55 |
| FLRGPSGPRFGPRNDKIKHVQNIV | 2.14 |
| FLRGPSGPRFGPRNDKIKHVQNKV | 2.22 |
| FLRGPSGPRFGPRNDKIKHVQNLV | 2.81 |
| FLRGPSGPRFGPRNDKIKHVQNMV | 2.2 |
| FLRGPSGPRFGPRNDKIKHVQNNV | 2.98 |
| FLRGPSGPRFGPRNDKIKHVQNPV | 3.04 |
| FLRGPSGPRFGPRNDKIKHVQNRV | 2.87 |
| FLRGPSGPRFGPRNDKIKHVQNSV | 2.54 |
| FLRGPSGPRFGPRNDKIKHVQNVV | 2.6 |

| Variant | protein stability index |
| --- | --- |
| FLRGPSGPRFGPRNDKIKHVQNWV | 1.84 |
| FLRGPSGPRFGPRNDKIKHVQNQA | 2.85 |
| FLRGPSGPRFGPRNDKIKHVQNQC | 2.22 |
| FLRGPSGPRFGPRNDKIKHVQNQD | 3.4 |
| FLRGPSGPRFGPRNDKIKHVQNQE | 2.89 |
| FLRGPSGPRFGPRNDKIKHVQNQF | 2.53 |
| FLRGPSGPRFGPRNDKIKHVQNQH | 3.18 |
| FLRGPSGPRFGPRNDKIKHVQNQI | 2.6 |
| FLRGPSGPRFGPRNDKIKHVQNQK | 3.46 |
| FLRGPSGPRFGPRNDKIKHVQNQL | 2.67 |
| FLRGPSGPRFGPRNDKIKHVQNQM | 3.02 |
| FLRGPSGPRFGPRNDKIKHVQNQN | 3.49 |
| FLRGPSGPRFGPRNDKIKHVQNQP | 2.94 |
| FLRGPSGPRFGPRNDKIKHVQNQQ | 2.76 |
| FLRGPSGPRFGPRNDKIKHVQNQR | 3 |
| FLRGPSGPRFGPRNDKIKHVQNQS | 2.9 |
| FLRGPSGPRFGPRNDKIKHVQNQT | 3.08 |
| FLRGPSGPRFGPRNDKIKHVQNQW | 2.82 |
| FLRGPSGPRFGPRNDKIKHVQNQY | 3 |

Variants of: B2
Assay: as above
Settings: c terminus: a fixed tail appended

| Variant | protein stability index |
| --- | --- |
| AYMNEGELRVLADTYDSVYLHPNS | 1.69 |
| CYMNEGELRVLADTYDSVYLHPNS | 1.52 |
| DYMNEGELRVLADTYDSVYLHPNS | 3.16 |
| EYMNEGELRVLADTYDSVYLHPNS | 1.93 |
| FYMNEGELRVLADTYDSVYLHPNS | 2.53 |
| GYMNEGELRVLADTYDSVYLHPNS | 1.89 |
| IYMNEGELRVLADTYDSVYLHPNS | 1.83 |
| KYMNEGELRVLADTYDSVYLHPNS | 1.92 |
| MYMNEGELRVLADTYDSVYLHPNS | 1.66 |
| PYMNEGELRVLADTYDSVYLHPNS | 2.63 |
| RYMNEGELRVLADTYDSVYLHPNS | 1.43 |
| SYMNEGELRVLADTYDSVYLHPNS | 2.04 |
